Laboratory results published in publication PMC5467389.

Experiments:
[1] = target: HA-tagged spinophilin (human) (UniProt Q96SB3); test: co-IP; HEK293 cells co-transfected with HA-spinophilin, V5-NF-M and kinase dead K72H myc-PKAc; low-ionic Tris buffer with 1% Triton X-100; HA or V5 immunoprecipitation, immunoblot
PP1 = test: spinophilin IP, spectral counting by MS; settings: reference: intact (contralateral) striatum; sites S17,S100

Chain of UniProt Q96SB3 (Q96SB3 whole entry): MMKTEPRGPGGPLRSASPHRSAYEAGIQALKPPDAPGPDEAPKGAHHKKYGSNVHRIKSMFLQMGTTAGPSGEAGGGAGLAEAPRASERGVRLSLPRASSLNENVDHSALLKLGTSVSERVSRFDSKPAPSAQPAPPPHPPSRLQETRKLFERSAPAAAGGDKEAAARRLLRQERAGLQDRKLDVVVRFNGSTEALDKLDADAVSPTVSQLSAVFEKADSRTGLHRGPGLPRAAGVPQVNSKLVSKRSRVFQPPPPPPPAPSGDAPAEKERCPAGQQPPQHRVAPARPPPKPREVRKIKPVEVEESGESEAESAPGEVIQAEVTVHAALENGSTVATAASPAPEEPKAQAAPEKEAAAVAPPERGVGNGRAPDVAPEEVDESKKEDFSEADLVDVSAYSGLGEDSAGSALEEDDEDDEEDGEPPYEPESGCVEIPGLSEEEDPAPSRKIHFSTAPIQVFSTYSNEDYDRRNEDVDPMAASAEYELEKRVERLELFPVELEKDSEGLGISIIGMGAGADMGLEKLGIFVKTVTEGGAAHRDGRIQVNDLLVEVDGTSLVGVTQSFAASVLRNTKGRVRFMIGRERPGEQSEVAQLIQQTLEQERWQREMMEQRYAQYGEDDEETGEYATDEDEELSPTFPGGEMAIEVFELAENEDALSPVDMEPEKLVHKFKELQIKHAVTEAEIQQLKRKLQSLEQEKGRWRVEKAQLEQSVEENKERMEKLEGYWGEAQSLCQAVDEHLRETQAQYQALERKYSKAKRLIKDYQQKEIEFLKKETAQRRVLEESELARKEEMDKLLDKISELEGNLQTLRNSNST
Chain of spinophilin (Q6R891 whole entry, looked up, change not shown): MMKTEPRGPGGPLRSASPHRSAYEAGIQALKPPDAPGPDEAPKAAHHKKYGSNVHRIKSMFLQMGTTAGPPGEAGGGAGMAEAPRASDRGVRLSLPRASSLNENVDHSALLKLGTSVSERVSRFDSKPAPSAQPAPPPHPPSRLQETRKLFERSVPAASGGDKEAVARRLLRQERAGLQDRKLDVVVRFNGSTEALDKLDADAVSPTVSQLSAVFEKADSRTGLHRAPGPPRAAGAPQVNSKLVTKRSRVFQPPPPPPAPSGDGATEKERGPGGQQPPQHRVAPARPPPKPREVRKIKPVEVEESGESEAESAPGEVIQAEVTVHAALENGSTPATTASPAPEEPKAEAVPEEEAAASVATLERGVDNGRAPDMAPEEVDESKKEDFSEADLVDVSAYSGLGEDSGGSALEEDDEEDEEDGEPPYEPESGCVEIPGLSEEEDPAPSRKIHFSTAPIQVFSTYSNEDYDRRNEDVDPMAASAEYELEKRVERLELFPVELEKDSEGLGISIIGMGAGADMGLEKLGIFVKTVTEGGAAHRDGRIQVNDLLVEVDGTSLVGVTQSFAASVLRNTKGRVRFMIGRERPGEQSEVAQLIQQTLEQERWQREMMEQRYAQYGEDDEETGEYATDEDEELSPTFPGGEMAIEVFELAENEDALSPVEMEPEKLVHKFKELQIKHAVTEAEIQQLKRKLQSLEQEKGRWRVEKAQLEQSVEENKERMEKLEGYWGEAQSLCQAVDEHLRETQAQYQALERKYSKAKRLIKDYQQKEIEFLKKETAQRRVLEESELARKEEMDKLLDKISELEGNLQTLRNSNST

Row | percent reduction of the association against wild type PKAc [1] [%] | other: percent increase over reference (PP1) [%] | Substance
1 | 63 |  | kinase dead (K72H mutant) myc-tagged PKAc (enzyme)
2 |  | 28 | spinophilin (from UniProt Q6R891) 6-OHDA-lesioned (ipsilateral) striatum
